Source: patent US20080070298, “Promoter of Synoviolin Gene” (published 2008)

Tests used:
Settings in all cases: label: 32P
Fli-1 = target: T1, Fli-1 (UniProt P26323 P26323:1-452); experiment: EMSA; in vitro translated; supershift
T1 sequence: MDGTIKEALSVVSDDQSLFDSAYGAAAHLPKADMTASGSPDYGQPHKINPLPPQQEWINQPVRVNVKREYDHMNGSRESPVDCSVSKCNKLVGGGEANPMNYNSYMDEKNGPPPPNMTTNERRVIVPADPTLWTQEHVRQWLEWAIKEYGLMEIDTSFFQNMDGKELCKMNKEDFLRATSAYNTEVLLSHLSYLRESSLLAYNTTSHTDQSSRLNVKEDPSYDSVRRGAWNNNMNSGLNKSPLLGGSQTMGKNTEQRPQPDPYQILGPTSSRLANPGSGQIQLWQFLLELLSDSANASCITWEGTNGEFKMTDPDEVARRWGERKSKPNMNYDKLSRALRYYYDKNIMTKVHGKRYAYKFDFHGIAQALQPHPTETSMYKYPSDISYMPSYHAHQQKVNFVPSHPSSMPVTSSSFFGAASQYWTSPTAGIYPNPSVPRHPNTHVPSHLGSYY
Description: (§1) Next, T4 […] kinase, buffer andy γ³²P were mixed and the mixture was reacted for 30 minutes at room temperature. The reaction solution was passed through a Micro Spin G-25 column (Amersham Pharmacia Biotech), and the collected column fraction was centrifuged to obtain labeled probes. Those having radioactivity of 30000 cpm or more per 1 µl were used.
(§2) 10 μg of protein was mixed with reaction buffer and probe, and reacted for 30 minutes at room temperature. For purposes of supershift, they were reacted for 1 hour at 4° C. before being reacted with the probe. The reaction solution was electrophoresed for about 3 hours at 100v, 50 mA in non-denatured gel. The gel was dried, and analyzed by autoradiography using a Fujii BAS2000.

Ets1 = target: T2, Ets1 (UniProt P27577 P27577:1-440); experiment: EMSA; in vitro translated; supershift
T2 sequence: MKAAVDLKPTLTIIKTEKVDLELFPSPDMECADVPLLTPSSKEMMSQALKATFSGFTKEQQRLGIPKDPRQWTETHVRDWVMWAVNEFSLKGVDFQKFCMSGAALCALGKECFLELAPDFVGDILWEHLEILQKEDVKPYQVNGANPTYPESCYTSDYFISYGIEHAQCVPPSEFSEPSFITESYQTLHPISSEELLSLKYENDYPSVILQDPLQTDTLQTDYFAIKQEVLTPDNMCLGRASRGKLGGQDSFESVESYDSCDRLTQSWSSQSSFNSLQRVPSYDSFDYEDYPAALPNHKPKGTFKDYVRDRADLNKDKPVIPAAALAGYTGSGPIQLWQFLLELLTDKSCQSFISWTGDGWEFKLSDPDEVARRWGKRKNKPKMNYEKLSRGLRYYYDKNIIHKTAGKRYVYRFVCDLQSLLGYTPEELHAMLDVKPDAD
Description: as §1, §2

GABPα = target: T3, GABPα (UniProt Q00422 Q00422:1-454); experiment: EMSA; in vitro translated; supershift
T3 sequence: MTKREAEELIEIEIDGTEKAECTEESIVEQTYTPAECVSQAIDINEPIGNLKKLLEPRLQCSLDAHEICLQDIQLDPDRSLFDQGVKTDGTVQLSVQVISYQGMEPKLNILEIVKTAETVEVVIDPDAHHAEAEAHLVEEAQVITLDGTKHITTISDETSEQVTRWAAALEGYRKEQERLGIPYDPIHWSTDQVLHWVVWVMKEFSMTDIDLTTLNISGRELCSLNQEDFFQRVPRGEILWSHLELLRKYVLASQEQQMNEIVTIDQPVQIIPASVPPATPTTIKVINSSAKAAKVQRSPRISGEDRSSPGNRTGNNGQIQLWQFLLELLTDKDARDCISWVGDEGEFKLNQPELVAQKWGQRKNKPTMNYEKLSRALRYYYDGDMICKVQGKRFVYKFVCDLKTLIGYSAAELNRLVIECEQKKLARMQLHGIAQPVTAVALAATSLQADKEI
Description: as §1, §2

GABPα/GABPβ complex = GABPα/GABPβ complex (UniProt Q00422;Q00420 Q00422:1-454,Q00420:2-383); experiment: EMSA; new complex bands on adding GABPβ to GABPα; GABPβ antibody interferes with complex a
Sequence of GABPα/GABPβ complex (Q00420 2-383, one chain of several): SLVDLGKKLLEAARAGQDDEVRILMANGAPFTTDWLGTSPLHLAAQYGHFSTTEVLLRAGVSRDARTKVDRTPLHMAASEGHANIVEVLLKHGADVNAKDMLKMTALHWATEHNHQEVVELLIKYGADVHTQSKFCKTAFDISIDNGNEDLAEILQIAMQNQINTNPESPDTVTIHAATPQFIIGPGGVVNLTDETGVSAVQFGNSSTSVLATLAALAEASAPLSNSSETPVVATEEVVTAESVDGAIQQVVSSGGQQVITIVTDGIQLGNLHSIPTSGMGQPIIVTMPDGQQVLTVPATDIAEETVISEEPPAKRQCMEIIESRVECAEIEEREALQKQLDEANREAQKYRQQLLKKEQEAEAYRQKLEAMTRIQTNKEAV
Description: as §1, §2

Measured: binding result

B1: EBS WT (-85 to -70) (dsDNA)
DNA 1: GCGCCGCCGGAAGTGA
DNA 2: TCACTTCCGGCGGCGC
binds: all assays above
